Assays:
[1] = tested on: peptide 23, Dap-substituted pyrene derivative at Y+3
[2] = tested on: peptide 25, Dab-modified pyrene analogue at Y-2

Chain of Yes (chain, as listed by the source): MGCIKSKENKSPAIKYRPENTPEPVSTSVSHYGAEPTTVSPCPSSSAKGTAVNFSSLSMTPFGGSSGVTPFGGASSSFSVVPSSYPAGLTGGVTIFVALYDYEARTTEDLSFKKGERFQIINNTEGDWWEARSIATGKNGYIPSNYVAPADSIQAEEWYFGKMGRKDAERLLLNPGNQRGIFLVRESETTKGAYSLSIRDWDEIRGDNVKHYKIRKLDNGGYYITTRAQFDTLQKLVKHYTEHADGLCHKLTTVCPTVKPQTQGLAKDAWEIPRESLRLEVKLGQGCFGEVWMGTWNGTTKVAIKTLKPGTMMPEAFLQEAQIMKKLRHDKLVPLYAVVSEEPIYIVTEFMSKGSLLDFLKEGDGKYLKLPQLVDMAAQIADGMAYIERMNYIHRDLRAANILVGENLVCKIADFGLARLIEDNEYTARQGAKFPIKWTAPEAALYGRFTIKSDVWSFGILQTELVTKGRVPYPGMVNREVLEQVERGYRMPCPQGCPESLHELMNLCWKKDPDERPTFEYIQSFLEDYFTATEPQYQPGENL
Chain of FynT (chain, as listed by the source): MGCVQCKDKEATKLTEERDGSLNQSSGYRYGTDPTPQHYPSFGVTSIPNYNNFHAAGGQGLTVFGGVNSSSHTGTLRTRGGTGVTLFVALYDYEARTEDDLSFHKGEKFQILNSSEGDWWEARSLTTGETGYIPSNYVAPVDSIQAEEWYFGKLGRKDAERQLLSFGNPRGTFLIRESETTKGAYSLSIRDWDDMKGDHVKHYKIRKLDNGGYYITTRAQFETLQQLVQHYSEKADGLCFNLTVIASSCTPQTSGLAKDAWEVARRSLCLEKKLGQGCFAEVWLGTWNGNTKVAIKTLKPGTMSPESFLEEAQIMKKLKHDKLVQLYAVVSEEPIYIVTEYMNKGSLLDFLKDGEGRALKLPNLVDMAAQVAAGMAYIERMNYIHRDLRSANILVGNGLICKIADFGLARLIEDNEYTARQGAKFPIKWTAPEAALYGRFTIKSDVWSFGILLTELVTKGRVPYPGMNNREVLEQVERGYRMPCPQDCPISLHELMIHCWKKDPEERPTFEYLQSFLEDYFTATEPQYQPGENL
Chain of TrkA (chain, as listed by the source): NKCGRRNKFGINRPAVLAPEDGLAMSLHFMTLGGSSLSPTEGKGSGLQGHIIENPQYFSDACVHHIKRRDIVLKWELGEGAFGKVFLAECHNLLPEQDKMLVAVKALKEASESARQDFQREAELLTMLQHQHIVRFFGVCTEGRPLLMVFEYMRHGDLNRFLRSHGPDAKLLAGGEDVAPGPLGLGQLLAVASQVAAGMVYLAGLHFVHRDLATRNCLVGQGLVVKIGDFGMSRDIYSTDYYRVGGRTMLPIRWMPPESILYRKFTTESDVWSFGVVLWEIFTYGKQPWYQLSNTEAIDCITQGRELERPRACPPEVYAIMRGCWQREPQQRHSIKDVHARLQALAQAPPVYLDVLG

## LynA
[1]
  Km: 140 µM
  Vmax: 2.6 µmol/min/mg
[2]
  Km: 43 µM
  Vmax: 2.6 µmol/min/mg

## Yes
[1]
  Km: 37 µM
  Vmax: 3.3 µmol/min/mg

## EGF
[1]
  phosphorylation of the peptide (fluorescence): unable to effectively catalyze the phosphorylation of either 23 or 25
[2]
  phosphorylation of the peptide (fluorescence): unable to effectively catalyze the phosphorylation of either 23 or 25

## Fgr
[1]
  Km: 54 µM
  Vmax: 2.3 µmol/min/mg

## TrkA
[1]
  Km: 350 µM
  Vmax: 1.1 µmol/min/mg

## FynT
[1]
  Km: 69 µM
  Vmax: 0.24 µmol/min/mg

Reference: patent publication US20060211075
